Test [1] has as its target T1, recombinant human PDGF-BB (human, UniProt P01127 82-190). Put plainly: cell-based or functional assay.
Test [2] deals with T1, recombinant human PDGF-BB. The test is described as follows: competition ELISA: antibody pre-incubated with hPDGF-BB-biotin, then added to coated hPDGF-Rβ-Fc (competitor). As for the experimental part:
(§1) Plates were then washed four times with wash buffer (TBS, 0.05% Tween-20) and blocked with Superblock blocking buffer (Thermo Scientific, cat#37535). During the blocking step, supernatants, antibodies, benchmark compounds or DVD-Ig were diluted in assay diluent (10% Superblock containing 0.05% surfactamps) and an eight point titration of each sample molecule was performed. […] Following incubation, plates were washed four times with wash buffer. Detection reagent Streptavidin-polyHRP-40 (Fitzgerald, cat#65r-s104phrp) was diluted in assay diluent and added to plates (50 μL) for 45 minutes at 25° C. with shaking. Plates were washed four times with wash buffer and developed with the addition of Enhanced K-blue TMB substrate (Neogen, cat#308177). The reaction was stopped with 2N sulfuric acid (VWR, cat# BDH3500-1) and the absorbance was read at 450 nm-570 nm. […] Data was analyzed using Softmax Pro 4.8 software and IC₅₀ values calculated using a sigmoidal dose response (variable slope) fit in GraphPad Prism 5.

Test [3] addresses T2, VEGF-A (recombinant; human VEGF-A 165) (human, UniProt P15692 207-395).
T2 construct: also called hVEGF165
The test is described as follows: Biacore SPR; binding protein captured on goat anti-human Fc, antigen injected (Example 1.1).

In test [4] the target is T3, PDGF-BB (recombinant; human PDGF-BB) (human, UniProt P01127 82-190, limits assumed).
T3 construct: PDGF-BB is a homodimer of two B chains; also called hPDGF-BB
The test is described as above.

The target in test [5] is T4, recombinant human PDGF-Rβ-Fc (human, UniProt P09619 33-530).
T4 construct: also called hPDGFRβ-Fc; hPDGF-Rβ; not shown: Fc part of the bought fusion protein
Put plainly: competition ELISA: antibody added to coated hPDGF-Rβ-Fc, then hPDGF-BB-biotin (competitor). The protocol:
Plates were then washed four times with wash buffer (TBS, 0.05% Tween-20) and blocked with Superblock blocking buffer (Thermo Scientific, cat#37535). During the blocking step, supernatants, antibodies and benchmark compounds were diluted in assay diluent (10% Superblock containing 0.05% surfactamps) and an eight point titration of each sample molecule was performed. The samples were added to wells and incubated for 30 minutes at 25° C. with shaking. […] This was added to wells (10 ng/mL/3.97E-10 M final concentration) and incubation was continued for 35 minutes at 25° C. with shaking. Following incubation, plates were washed four times with wash buffer. Detection reagent Streptavidin-polyHRP-40 (Fitzgerald, cat#65r-s104phrp) was diluted in assay diluent and added to plates (50 μL) for 45 minutes at 25° C. with shaking. Plates were washed four times with wash buffer and developed with the addition of Enhanced K-blue TMB substrate (Neogen, cat#308177). The reaction was stopped with 2N sulfuric acid (VWR, cat# BDH3500-1) and the absorbance was read at 450 nm-570 nm. […] Data was analyzed using Softmax Pro 4.8 software and IC₅₀ values calculated using a sigmoidal dose response (variable slope) fit in GraphPad Prism 5.

For test [6], the target named is T5, recombinant human PDGF-BB (human, UniProt P01127 82-190, biotin-labelled in the binding and competition ELISAs (sites not given)). The test is described as follows: cell-based or functional assay.
The next test has as its target recombinant rat PDGF-BB (rat, UniProt Q05028 74-182). Put plainly: cell-based or functional assay.
The target in test [7] is T5, recombinant human PDGF-BB. The test is described as follows: Biacore SPR, antibody captured by anti-human Fc, PDGF-BB injected. The protocol:
For example, approximately 9000 RU of goat anti-human Fc specific polyclonal antibody (Thermo Fisher Scientific Inc., Rockford, Ill.) diluted in 10 mM sodium acetate (pH 4.5) is directly immobilized across a CM5 research grade biosensor chip using a standard amine coupling kit according to manufacturer's instructions and procedures at 25 μg/ml. Unreacted moieties on the biosensor surface were blocked with ethanolamine. For kinetic analysis, rate equations derived from the 1:1 Langmuir binding model were fitted simultaneously to multiple antigen injections (using global fit analysis) with the use of Scrubber 2 (BioLogic Software), Biacore Biaevaluation 4.0.1 software or Biacore T100 Evaluation software. Purified antibodies or DVD-Ig molecules were diluted in running buffer for capture across goat anti-human Fc reaction surfaces. Antibodies or DVD-Ig molecules to be captured as a ligand (1 μg/ml) were injected over reaction matrices at a flow rate of 10 μl/minute. During the assay, all measurements were referenced against the capture surface alone (i.e., with no captured antibody or DVD-Ig molecule). […] The equilibrium dissociation constant KD (M) of the reaction between antibodies and the target antigen was then calculated from the kinetic rate constants by the following formula: KD=Koff/Kₒₙ. Binding was recorded as a function of time and kinetic rate constants were calculated.
(In general: Surface plasmon resonance follows binding to a sensor surface in real time, without labels.)

Test [8] has as its target T5, recombinant human PDGF-BB. Put plainly: direct binding ELISA, biotin-hPDGF-BB on neutravidin plates, antibody titrated. As for the experimental part:
Plates were then washed four times with wash buffer (TBS, 0.05% Tween-20). The sample molecule titration was added to the coated plate at 50 μL in duplicate and incubated for one hour at 25° C. with shaking. Following incubation, plates were washed four times with wash buffer. The appropriate anti-species-IgG HRP conjugate was in assay diluent (10% Superblock containing 0.05% surfactamps) and added to plates (50 μL) for one hour at 25° C. with shaking. Plates were washed four times with wash buffer and developed with the addition of Enhanced K-blue TMB substrate (Neogen, cat#308177). The reaction was stopped with 2N sulfuric acid (VWR, cat# BDH3500-1) and the absorbance was read at 450 nm-570 nm. […] Data was analyzed using Softmax Pro 4.8 software and IC₅₀ values calculated using a sigmoidal dose response (variable slope) fit in GraphPad Prism 5.
(An ELISA detects its analyte on a solid surface through an enzyme-linked reagent.)

For test [9], the target named is T5, recombinant human PDGF-BB. The test is described as follows: receptor competition ELISA: antibody pre-incubated with biotin-hPDGF-BB, binding to coated hPDGF-Rβ-Fc. The protocol: as §1

T1 sequence (P01127 82-190 limits assumed): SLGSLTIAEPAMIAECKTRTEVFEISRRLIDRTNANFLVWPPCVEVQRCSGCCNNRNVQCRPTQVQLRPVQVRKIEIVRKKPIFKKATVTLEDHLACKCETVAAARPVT
T5 sequence (P01127 82-190 limits assumed): as above
T3 sequence (P01127 82-190 limits assumed): as above
T2 sequence (P15692 other isoform, or with tags, fused parts or gaps limits assumed): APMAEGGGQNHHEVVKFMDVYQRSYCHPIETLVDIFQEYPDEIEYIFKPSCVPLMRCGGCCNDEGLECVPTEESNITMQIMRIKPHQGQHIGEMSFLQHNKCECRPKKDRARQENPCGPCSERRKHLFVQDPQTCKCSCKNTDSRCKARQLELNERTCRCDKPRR
T4 sequence (P09619 33-530 limits assumed): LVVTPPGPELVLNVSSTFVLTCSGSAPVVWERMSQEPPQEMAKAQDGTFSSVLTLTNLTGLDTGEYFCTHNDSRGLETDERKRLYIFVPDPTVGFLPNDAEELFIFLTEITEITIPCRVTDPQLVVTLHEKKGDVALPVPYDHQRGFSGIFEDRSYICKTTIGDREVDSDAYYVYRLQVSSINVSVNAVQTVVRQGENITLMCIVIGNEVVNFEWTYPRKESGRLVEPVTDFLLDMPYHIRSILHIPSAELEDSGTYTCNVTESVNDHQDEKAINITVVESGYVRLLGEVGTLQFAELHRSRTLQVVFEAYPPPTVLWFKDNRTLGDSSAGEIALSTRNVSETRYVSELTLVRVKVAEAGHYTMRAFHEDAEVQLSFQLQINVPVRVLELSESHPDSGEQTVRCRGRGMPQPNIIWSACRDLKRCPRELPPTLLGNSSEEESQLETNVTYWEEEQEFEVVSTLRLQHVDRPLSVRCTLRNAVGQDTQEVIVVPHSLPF
recombinant rat PDGF-BB, sequence (Q05028 74-182 limits assumed): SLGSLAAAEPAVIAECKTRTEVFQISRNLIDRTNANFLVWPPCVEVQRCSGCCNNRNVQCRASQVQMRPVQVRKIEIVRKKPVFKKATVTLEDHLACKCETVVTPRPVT

B1: hBDI-9E8.11 (antibody, V domains shown)
VH: EVQLVESGGGLVQPGGSLRLSCAFSGFSLSTYGMGVGWIRQAPGKGLEWLANIWWDDDKYYNPSLKNRLTISKDTSKNQAYLQINSLRAEDTAVYYCARIESIGTTYSFDYWGQGTLVTVSS
VL: DFVLTQSPDSLAVSLGERATINCERSSGDIGDSYVSWYQQKPGQPPKNVIYADDQRPSGVPDRFSGSGSGNSASLTISSLQAEDVAVYFCQSYDINIDIVFGGGTKVEIK
notes: Humanized IgG from pHybE expression vectors, made in HEK293 6E and protein A purified
With B1, in test [1], the “hPDGF-BB IC50 (nM), hPDGF-BB-induced NIH-3T3 cell proliferation” value stood at 0.309 nM. In addition, the half-inhibitory concentration (IC50) – broadly, the concentration needed to halve the response being measured – in [2] came to 1.73 nM.

B2: hBDI-9E8.4 (antibody, V domains shown)
VH: EVTLRESGPALVKPTQTLTLTCTFSGFSLSTYGMGVGWIRQPPGKALEWLANIWWDDDKYYNPSLKNRLTISKDTSKNQVVLTMTNMDPVDTATYYCARIESIGTTYSFDYWGQGTMVTVSS
VL: EFVLTQSPGTLSLSPGERATLSCERSSGDIGDSYVSWYQQKPGQAPRLVIYADDQRPSGIPDRFSGSGSGTDFTLTISRLEPEDFAVYYCQSYDINIDIVFGGGTKVEIK
notes: Humanized IgG from pHybE expression vectors, made in HEK293 6E and protein A purified; also called h9E8.4
With B2, in test [1], the “hPDGF-BB IC50 (nM), hPDGF-BB-induced NIH-3T3 cell proliferation” value was 0.061 nM. Further, the concentration for half-maximal inhibition (IC50) in test [2] is 4.3 nM.

B3: CODV022 (PR-1577056), anti-human VEGF-A/anti-human PDGF-BB cross-over DVD-Ig molecule (bispecific antibody, human IgG1, kappa, L234A L235A)
heavy: EVQLVQSGSELKKPGASVKVSCKASGYTFTNYGMYWVRQAPGQGLEWMGWINTETGKPTYADDFKGRFVFSLDTSVSTAYLQISSLKAEDTAVYYCARTNYYYRSYIFYFDYWGQGTMVTVSSGGGGSGGGEFVLTQSPGTLSLSPGERATLSCERSSGDIGESYVSWYQQKPGQAPRLVIYADDQRPSGIPDRFSGSGSGTDFTLTISRLEPEDFAVYYCQSYDINIDIVFGGGTKVEIKGGGSGASTKGPSVFPLAPSSKSTSGGTAALGCLVKDYFPEPVTVSWNSGALTSGVHTFPAVLQSSGLYSLSSVVTVPSSSLGTQTYICNVNHKPSNTKVDKKVEPKSCDKTHTCPPCPAPEAAGGPSVFLFPPKPKDTLMISRTPEVTCVVVDVSHEDPEVKFNWYVDGVEVHNAKTKPREEQYNSTYRVVSVLTVLHQDWLNGKEYKCKVSNKALPAPIEKTISKAKGQPREPQVYTLPPSREEMTKNQVSLTCLVKGFYPSDIAVEWESNGQPENNYKTTPPVLDSDGSFFLYSKLTVDKSRWQQGNVFSCSVMHEALHNAYTQKSLSLSPGK
light: EVTLRESGPALVKPTQTLTLTCTFSGFSLSTYGMGVGWIRQPPGKALEWLANIWWDDDKYYNPSLKNRLTISKDTSKNQVVLTMTNMDPVDTATYYCARIESIGTTYSFDYWGQGTMVTVSSGGGGSDTVLTQSPATLSLSPGERATLSCRASESVSTHMHWYQQKPGQAPRLLIYGASNLESGVPARFSGSGSGTDFTLTISSLEPEDFAVYFCQQSWNDPFTFGQGTKLEIKGGSRTVAAPSVFIFPPSDEQLKSGTASVVCLLNNFYPREAKVQWKVDNALQSGNSQESVTEQDSKDSTYSLSSTLTLSKADYEKHKVYACEVTHQGLSSPVTKSFNRGEC
notes: Cross-over DVD-Ig: the variable domains of the 4G8.3 (VEGF) and 9E8.4E (PDGF) sites are spread over both chains; also called CO-DVD-Ig
Regarding B3, in [3], the dissociation constant Kd (in general, the equilibrium constant for the complex coming apart) was 0.013 nM and the kon (as a rule, the second-order rate constant of association) is 4.5e+06 M⁻¹ s⁻¹. In test [4], the Kd was 4.2 pM and the kon was found to be 3.2e+07 M⁻¹ s⁻¹.

B4: hBDE-3C9.1 (antibody, V domains shown)
VH: EVQLVESGGGLVQPGGSLRLSCAASGFTFSNYGMAWVRQAPGKGLEWVASITNSGGNTYYRDSVKGRFTISRDNAKNTQYLQMNSLRAEDTAVYFCARHTPGANYFDYWGQGTMVTVSS
VL: DIQMTQSPSSLSASVGDRVTITCQASQSIKNYIAWYQLKPGKAPRLLMRYTSTLESGTPSRFSGSGSGRDYTFTISSLQPEDIATYYCVQYANLYTFGGGTKVEIK
notes: Humanized anti-human PDGFR-B IgG from pHybE expression vectors
As to B4, the half-maximal inhibitory concentration (IC50) in test [5] was determined as 0.217 nM.

B5: hBDE-3C9.2 (antibody, V domains shown)
VH: EVQLVESGGGLVQPGGSLRLSCAASGFTFSNYGMAWVRQAPGKGLEWVASITNSGGNTYYRDSVKGRFTISRDNAKNSLYLQMNSLRAEDTAVYYCARHTPGANYFDYWGQGTMVTVSS
VL: DIQMTQSPSSLSASVGDRVTITCQASQSIKNYIAWYQQKPGKAPRLLIRYTSTLESGVPSRFSGSGSGRDYTFTISSLQPEDIATYYCVQYANLYTFGGGTKVEIK
notes: as for B4
Regarding B5, the IC50 in test [5] was found to be 0.26 nM.

B6: chBDI-9E8 (antibody, V domains shown)
VH: QVTLKESGPGILQPSQTLSLTCTFSGFSLSTYGMGVGWIRQPSGKGLEWLANIWWDDDKYYNPSLKNRLTISKDTSNNQAFLKITNVDTADTATYYCARIESIGTTYSFDYWGQGVMVTVSS
VL: QFTLTQPKSVSGSLRSTITIPCERSSGDIGDSYVSWYQQHLGRPPINVIYADDQRPSEVSDRFSGSIDSSSNSASLTITNLQMDDEADYFCQSYDINIDIVFGGGTKLTVL
notes: also called chimeric BDI-9E8-E7
As to B6, in test [6], the “huPDGF-BB Neutralization Potency (nM) in NIH-3T3 Cells” value was determined as 0.058 nM. In addition, the “ratPDGF-BB Neutralization Potency (nM) in NIH-3T3 Cells” value with recombinant rat PDGF-BB amounted to 0.075 nM. In addition, in test [7], the Kd is at most 0.012 nM; the koff (as a rule, the first-order rate constant of dissociation) was 0.00012 s⁻¹; the kon was at least 1e+07 M⁻¹ s⁻¹. Moreover, in test [8], the EC50 (as a rule, the concentration at which the effect is half-maximal) was 0.38 nM. In addition, in test [9], the IC50 stood at 0.791 nM.

B7: chBDI-5H1 (antibody, human IgG1, V domains shown)
VH: QVTLKESGPGILQPSQTLSLTCTFSGFSLSTFGMGVGWIRQPSGKGLEWLANIWWDDDKYYNPSLKNRLTISKDTSNSQAFLEITNVDTADTATYYCARISTGISSYYVMDAWGQGASVTVSS
VL: QFTLTQPKSVSGSLRSTITIPCERSSGDIGDTYVSWYQQHLGRPPINVIYGNDQRPSEVSDRFSGSIDSSSNSASLTITNLQMDDEADYFCQSYDSDIDIVFGGGTKLTVL
notes: also called chimeric BDI-5H1-F6
Regarding B7, in test [6], the “huPDGF-BB Neutralization Potency (nM) in NIH-3T3 Cells” value is 0.275 nM. Moreover, in the test with recombinant rat PDGF-BB, the “ratPDGF-BB Neutralization Potency (nM) in NIH-3T3 Cells” value was found to be 0.17 nM. Moreover, in test [7], the dissociation constant (Kd) is at most 0.015 nM, the koff is 0.00015 s⁻¹ and the association rate constant (kon) was at least 1e+07 M⁻¹ s⁻¹. Further, the EC50 in test [8] came out at 0.12 nM. Moreover, the IC50 in test [9] stood at 1.04 nM.

Source of the values: patent US20170015742A1 (published 2017).
